The source of these data is publication PMC7583008.

pKi: −log10 of the molar value.

Assay [1] deals with GH2 β-mannosidase from Cellulomonas fimi (EC 3.2.1.25) (Cellulomonas fimi) (UniProt Q9XCV4).
The target is the same in assay [2]. The source holds these as a separate data set.
The target is the same in assay [3]. This is another data set of the same source.
Assay [4] shares this target. In words: enzyme inhibition titration (residual activity against inhibitor/enzyme ratio); fixed enzyme (11.8 μM) preincubated with increasing γC for 10 min at room temperature; 100 mM sodium maleate pH 6.0, BSA 1 mg/mL, 1 mM Zn2+, pNP-β-D-mannopyranoside 0.8 mM, 35 °C, 15 min; Ki calculated from the IC50 by the method of Cer et al., assuming competitive inhibition (Km 300 μM); stoichiometry from the x-intercept of the tangent line.

Sequence of UniProt Q9XCV4 (Q9XCV4 entry or part of it): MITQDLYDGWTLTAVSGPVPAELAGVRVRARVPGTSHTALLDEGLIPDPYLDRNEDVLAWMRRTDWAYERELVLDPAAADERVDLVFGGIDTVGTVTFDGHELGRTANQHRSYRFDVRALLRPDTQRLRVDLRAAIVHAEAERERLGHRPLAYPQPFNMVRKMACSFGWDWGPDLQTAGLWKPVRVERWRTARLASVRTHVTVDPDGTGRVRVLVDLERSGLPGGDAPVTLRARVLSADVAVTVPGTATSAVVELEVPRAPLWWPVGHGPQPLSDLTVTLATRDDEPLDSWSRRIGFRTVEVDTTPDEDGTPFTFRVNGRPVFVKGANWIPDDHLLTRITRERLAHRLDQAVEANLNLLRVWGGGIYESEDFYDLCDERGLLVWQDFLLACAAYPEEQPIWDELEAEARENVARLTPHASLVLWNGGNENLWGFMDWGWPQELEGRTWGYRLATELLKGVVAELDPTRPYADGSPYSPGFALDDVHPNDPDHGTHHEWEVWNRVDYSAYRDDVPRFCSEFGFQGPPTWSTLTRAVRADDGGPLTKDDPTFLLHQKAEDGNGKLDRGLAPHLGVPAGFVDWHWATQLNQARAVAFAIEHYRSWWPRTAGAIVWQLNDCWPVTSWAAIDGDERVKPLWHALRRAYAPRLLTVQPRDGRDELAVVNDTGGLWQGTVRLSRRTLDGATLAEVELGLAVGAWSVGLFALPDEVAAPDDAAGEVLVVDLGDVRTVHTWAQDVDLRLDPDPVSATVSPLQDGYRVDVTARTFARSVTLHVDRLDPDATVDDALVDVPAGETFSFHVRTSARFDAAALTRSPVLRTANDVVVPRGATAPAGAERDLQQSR

For “Lupinus albus γ-conglutin (natural protein)”, the residual activity of GH2 β-mannosidase with γC at a molar ratio of 1:1 in the presence of 1 mM Zn2+ in assay [1] was found to be 55%. Further, the residual activity of GH2 β-mannosidase with γC at a molar ratio of 1:1 (pNP-β-D-mannopyranoside as substrate, no metal added) in assay [2] is 73%. Besides, in assay [3], the IC50 of the inhibition of GH2 β-mannosidase activity by γC, as a molar ratio (11.8 μM enzyme, 1 mM Zn2+, pH 6.0) (molar ratio [γC]/[GH2]) was 0.99. Also, in assay [4], the pKi is 5.81 and the stoichiometry N (enzyme/inhibitor) was 1.14.

In general, pKi refers to the negative decadic logarithm of the Ki, by convention in mol/L.
